Assay results reported in publication PMC8748794.

Biological target: Spt16/Pob3 heterodimer (yeast FACT), full length (yeast) (UniProt P32558)
Chain of UniProt P32558 (P32558 whole entry, chain 1 of 2): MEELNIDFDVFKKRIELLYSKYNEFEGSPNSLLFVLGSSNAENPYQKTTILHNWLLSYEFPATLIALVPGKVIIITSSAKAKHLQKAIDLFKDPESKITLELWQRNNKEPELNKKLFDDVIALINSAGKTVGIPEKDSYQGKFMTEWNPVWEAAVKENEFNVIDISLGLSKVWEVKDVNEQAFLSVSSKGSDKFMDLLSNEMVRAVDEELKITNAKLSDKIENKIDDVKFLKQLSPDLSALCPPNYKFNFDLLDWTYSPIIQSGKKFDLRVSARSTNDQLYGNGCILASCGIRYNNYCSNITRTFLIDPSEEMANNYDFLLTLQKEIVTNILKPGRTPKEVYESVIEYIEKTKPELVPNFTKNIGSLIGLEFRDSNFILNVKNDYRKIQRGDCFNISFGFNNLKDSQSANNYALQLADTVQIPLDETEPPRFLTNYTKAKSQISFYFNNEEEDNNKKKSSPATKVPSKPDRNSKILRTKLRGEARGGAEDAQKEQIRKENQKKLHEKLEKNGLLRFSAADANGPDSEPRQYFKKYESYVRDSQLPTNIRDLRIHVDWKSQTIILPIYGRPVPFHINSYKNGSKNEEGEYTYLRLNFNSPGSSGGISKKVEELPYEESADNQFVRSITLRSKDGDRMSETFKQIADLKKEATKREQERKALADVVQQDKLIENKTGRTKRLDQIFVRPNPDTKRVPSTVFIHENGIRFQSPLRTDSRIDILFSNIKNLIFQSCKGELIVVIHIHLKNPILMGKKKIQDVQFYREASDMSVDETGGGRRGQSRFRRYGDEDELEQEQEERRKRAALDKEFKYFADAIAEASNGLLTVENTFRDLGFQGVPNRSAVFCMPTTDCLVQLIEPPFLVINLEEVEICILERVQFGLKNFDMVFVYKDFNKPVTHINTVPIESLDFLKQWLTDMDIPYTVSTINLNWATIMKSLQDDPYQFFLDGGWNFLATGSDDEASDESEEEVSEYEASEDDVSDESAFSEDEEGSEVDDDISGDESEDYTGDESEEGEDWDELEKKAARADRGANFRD
Chain of UniProt P32558 (Q04636 whole entry, chain 2 of 2, further chain): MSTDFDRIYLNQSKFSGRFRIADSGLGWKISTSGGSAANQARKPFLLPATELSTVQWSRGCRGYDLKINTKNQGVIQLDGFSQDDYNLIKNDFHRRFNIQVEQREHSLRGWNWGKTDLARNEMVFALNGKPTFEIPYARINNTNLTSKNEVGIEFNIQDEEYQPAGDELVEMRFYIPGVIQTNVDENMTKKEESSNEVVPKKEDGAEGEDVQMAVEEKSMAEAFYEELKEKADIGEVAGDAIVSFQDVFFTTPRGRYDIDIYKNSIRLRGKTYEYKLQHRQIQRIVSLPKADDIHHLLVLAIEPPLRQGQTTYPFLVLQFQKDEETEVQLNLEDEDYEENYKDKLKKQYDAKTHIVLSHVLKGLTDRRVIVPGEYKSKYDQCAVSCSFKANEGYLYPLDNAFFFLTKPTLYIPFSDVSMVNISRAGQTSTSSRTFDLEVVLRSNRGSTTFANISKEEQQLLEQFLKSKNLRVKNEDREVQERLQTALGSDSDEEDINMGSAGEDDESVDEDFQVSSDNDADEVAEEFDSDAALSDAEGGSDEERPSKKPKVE

fraction of FACT particles in the open conformation (>90°) by negative-stain EM; 36% for FACT alone: 51%
Substance: Nhp6 (non-histone protein), HMGB-domain factor (from UniProt P11632 1-93) (natural protein)
